# Experimental data taken from patent publication US20100009920.
# T1: GST-tagged EGFR-DEL3 (amino acid 1046-1186)
# T1 chain: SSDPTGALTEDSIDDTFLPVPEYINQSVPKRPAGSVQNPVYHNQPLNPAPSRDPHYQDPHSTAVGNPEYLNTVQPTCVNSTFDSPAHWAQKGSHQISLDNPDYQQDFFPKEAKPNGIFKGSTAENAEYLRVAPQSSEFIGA
# T2: GST-tagged EGFR-DEL1 (amino acid 692-891)
# T2 chain: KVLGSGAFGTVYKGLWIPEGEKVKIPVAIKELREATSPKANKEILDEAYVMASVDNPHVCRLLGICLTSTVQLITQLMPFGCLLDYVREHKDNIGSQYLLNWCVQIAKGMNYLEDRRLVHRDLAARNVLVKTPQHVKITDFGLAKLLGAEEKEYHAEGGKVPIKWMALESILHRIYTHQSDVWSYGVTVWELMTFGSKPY
# T3: EGFR-DEL4 (amino acid 977-1045) protein
# T3 chain: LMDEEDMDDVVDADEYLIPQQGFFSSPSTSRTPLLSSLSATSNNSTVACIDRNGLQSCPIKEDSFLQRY
# B1: purified recombinant His-tagged TTK (protein)
# chain: MESEDLSGRELTIDSIMNKVRDIKNKFKNEDLTDELSLNKISADTTDNSGTVNQIMMMANNPEDWLSLLLKLEKNSVPLSDALLNKLIGRYSQAIEALPPDKYGQNESFARIQVRFAELKAIQEPDDARDYFQMARANCKKFAFVHISFAQFELSQGNVKKSKQLLQKAVERGAVPLEMLEIALRNLNLQKKQLLSEEEKKNLSASTVLTAQESFSGSLGHLQNRNNSCDSRGQTTKARFLYGENMPPQDAEIGYRNSLRQTNKTKQSCPFGRVPVNLLNSPDCDVKTDDSVVPCFMKRQTSRSECRDLVVPGSKPSGNDSCELRNLKSVQNSHFKEPLVSDEKSSELIITDSITLKNKTESSLLAKLEETKEYQEPEVPESNQKQWQSKRKSECINQNPAASSNHWQIPELARKVNTEQKHTTFEQPVFSVSKQSPPISTSKWFDPKSICKTPSSNTLDDYMSCFRTPVVKNDFPPACQLSTPYGQPACFQQQQHQILATPLQNLQVLASSSANECISVKGRIYSILKQIGSGGSSKVFQVLNEKKQIYAIKYVNLEEADNQTLDSYRNEIAYLNKLQQHSDKIIRLYDYEITDQYIYMVMECGNIDLNSWLKKKKSIDPWERKSYWKNMLEAVHTIHQHGIVHSDLKPANFLIVDGMLKLIDFGIANQMQPDTTSVVKDSQVGTVNYMPPEAIKDMSSSRENGKSKSKISPKSDVWSLGCILYYMTYGKTPFQQIINQISKLHAIIDPNHEIEFPDIPEKDLQDVLKCCLKRDPKQRISIPELLAHPYVQIQTHPVNQMAKGTTEEMKYVLGQLVGLNSPNSILKAAKTLYEHYSGGESHNSSSSKTFEKKRGKK
# Experiments:
# [1] = molecular target: T1, GST-tagged EGFR-DEL3 (amino acid …)
# [2] = molecular target: GST-tagged EGFR-DEL2 protein (amino acid 889-1045)
# [3] = molecular target: T2, GST-tagged EGFR-DEL1 (amino acid …)
# [4] = molecular target: catalytically-active recombinant GST-tagged human EGFR (active-rhEGFR; Upstate), P00533
# [5] = molecular target: T3, EGFR-DEL4 (amino acid 977-1045) protein
# [6] = molecular target: GST-tagged EGFR-DEL2 (Y992A) protein
protein,measurement,setting,value
B1,"tyrosine phosphorylation (in vitro kinase assay, western blot)",[1],"other tyrosine residues in GST-tagged EGFR-DEL1 (amino acid 692-891), EGFR-DEL2 and EGFR-DEL3 (amino acid 1046-1186) proteins were not phosphorylated at all"
same,"phosphorylation of EGFR Tyr-992 (in vitro kinase assay, western blot)",[2],Phosphorylation of EGFR Tyr-992 in GST-tagged EGFR-DEL2 protein (amino acid 889-1045) was promoted in a TTK-dose dependent manner
same,phosphorylation site by MALDI tandem mass spectrometry after in vitro phosphorylation,[2],phosphorylation of EGFR Ser-967 was identified (data not shown)
same,"tyrosine phosphorylation (in vitro kinase assay, western blot)",[3],"other tyrosine residues in GST-tagged EGFR-DEL1 (amino acid 692-891), EGFR-DEL2 and EGFR-DEL3 (amino acid 1046-1186) proteins were not phosphorylated at all"
same,"tyrosine phosphorylation of active-rhEGFR (in vitro kinase assay, anti-phospho-tyrosine western blot)",[4],the phosphorylation of active-rhEGFR by TTK was not inhibited by AG1478
same,phosphorylation of EGFR Tyr-992 (in vitro kinase assay),[5],EGFR-DEL4 (amino acid 977-1045) protein was not phosphorylated at Tyr-992 (data not shown)
same,"32P incorporation ([gamma-32P] ATP in vitro kinase assay, autoradiography)",[6],"This mutation remarkably reduced the intensity of lower-band, but did not reduce that of upper-band"
